Experimental findings from PMC7152510 (Nature structural & molecular biology, 2017) are described below.

Numbering of substitutions follows the chain as printed. Names and notes keep the numbering of the source. Where two headings read alike, the source gives them in different places.

Series [1] concerns the target ΔMIT katanin p60 (E293Q) (Caenorhabditis elegans). Description: solution SAXS.
Series [2] deals with the molecule itself. Description: AUC.
Series [3] deals with the molecule itself. Put plainly: AUC. The source holds these as a separate data set.

The stoichiometry N is the number of molecules, sites or subunits per partner or assembly. Consider “ΔMIT katanin p60 (E293Q) (domain or fragment)”, for which the stoichiometry N in series [1] is 6.

B1: Caenorhabditis elegans katanin p60 (MEI-1), catalytic subunit, wild type (enzyme, UniProt P34808 1-472, looked up)
chain: MNGDVQSVIRGYLERAQVAKTMSDAGRWNEAGDLLRQLMTDVKSCKISASNRDEHDARNTFLRALEANLKLVQQNVRDEDDLHEAMTRQSGSPEPPADPDVWSKPSPPLPSSSKFGATKKGVGAAGPRPREISKSTSSMSTNPADVKPANPTQGILPQNSAGDSFDASAYDAYIVQAVRGTMATNTENTMSLDDIIGMHDVKQVLHEAVTLPLLVPEFFQGLRSPWKAMVLAGPPGTGKTLIARAIASESSSTFFTVSSTDLSSKWRGDSEKIVRLLFELARFYAPSIIFIDEIDTLGGQRGNSGEHEASRRVKSEFLVQMDGSQNKFDSRRVFVLAATNIPWELDEALRRRFEKRIFIPLPDIDARKKLIEKSMEGTPKSDEINYDDLAARTEGFSGADVVSLCRTAAINVLRRYDTKSLRGGELTAAMESLKAELVRNIDFEAALQAVSPSAGPDTMLKCKEWCDSFGAM
In the case of B1, the “stoichiometry N” value in “AUC [2]” amounted to 6.

B2: Caenorhabditis elegans katanin p60 (E293Q), Walker B mutant, full-length (enzyme, UniProt P34808 1-472, looked up)
chain: B1 chain with E293Q
Take B2: the “stoichiometry N” value in “AUC [3]” worked out at 6.
